# B1: bNAb F6 Fab (for SPR) (Fab, V domains shown)
# VH: QVQLQQWGTGLLKPSETLSLTCAVYGVSLRGYYWTWIRQSPKKGLEWIGEIDEIGRTKYSQSLRSRATLSIDTSKKQFSLRLTSVTAADMATYYCARWRLMMVDEVTRHGMDVWSQGTMVTVSS
# VL: DIVMTQSPLSLSVAPGEAASISCRSTQSLLNRNGDNYLEWYLRRPGRSPQLLIYLGSERALGVPDRFSGSGSGRDFTLKISRVEAQDVGTYYCLQTRQGAFTFGQGTKLEIK
# Molecular target: X18 gp120
# Assay: SPR
binder,measurement,value
B1,Kd,32.5 nM
